# The supplement of paper PMC10126150
# ± gives the standard deviation of the averaged measurements.
# Test system: ATP
# Assay: switch fluorescence ratio, 500 uM ATP over buffer (Cy3 cluster intensity, sum of 5 cycles each) (fold (ratio)); higher = stronger signal-on switching upon ATP binding; sequences stand for … in TCGTCGGCAGCGTCAGATGTGTATAAGAGACAGTTTTTTTTTTTTTTTTTTTTTTTTT…TC
# Details: aptamer strand: ATP DNA aptamer (quencher-CACCTGGGGGAGTATTGCGGAGGAAGG + anchor), 100 nM annealed; ATP concentration: 500 uM
# Procedure, shortened: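 Switching-strand clusters labelled with Cy3 on a modified Illumina MiSeq flow-cell were annealed to 100 nM quencher-labelled ATP aptamer, imaged in selection buffer, and re-imaged after 15 min with 500 uM ATP at 22 °C. This was done over five cycles with NaOH stripping and re-annealing in between. The fluorescence ratio is summed target-cycle over summed buffer-cycle Cy3 intensity per cluster, averaged per switch-domain sequence, excluding clusters outside 100-1000 RFU.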
# 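Also: ATP exposure 15 min at 22 °C before imaging.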
row,Sequence,switch fluorescence ratio
1,TCCAGTATTA,0.9945 ± 0.0042
2,TAAGGTATGT,1.03 ± 0.026
3,TAGGTCCTTT,1.02 ± 0.02
4,GTGATTTGCG,1.008 ± 0.0036
5,GGGGGTACTA,0.96 ± 0.019
6,GCTTGTGGAG,1.02 ± 0.013
7,AGACTGGGGG,0.997 ± 0.033
8,GGGCAGACCA,1.01 ± 0.011
9,CTCCGGCGCA,4.19 ± 0.76
10,AAATATCGGT,0.971 ± 0.018
11,AGTTTTAAGG,1 ± 0.025
12,CTATGAAGGG,0.963 ± 0.034
13,CGTTTGTTCG,1.03 ± 0.071
14,CGGGTCCTAA,0.9795 ± 0.0078
15,TCATTTTTAC,1.049 ± 0.0072
16,AATAATATTA,0.975 ± 0.019
17,ATGGGCTATT,0.994 ± 0.038
18,AAAGAGTAGA,1.025 ± 0.0034
19,AACGCCGGCC,1.01 ± 0.057
20,TTGGAGAAGG,0.998 ± 0.018
21,TGACTAATAA,1.02 ± 0.013
22,AAAAAATTGG,0.989 ± 0.035
23,TACCGTGGGC,1.04 ± 0.036

row,Sequence,switch fluorescence ratio
1,ATTGCATAAT,1.06 ± 0.078
2,ATCGGGGGTA,0.982 ± 0.016
3,TTCACTAGGT,1.01 ± 0.039
4,ACTGGGGGTA,1.01 ± 0.025
5,TGCAGGAGCT,1.01 ± 0.032
6,TAAAATCATT,0.974 ± 0.035
7,CGGTTTATAA,0.981 ± 0.013
8,GGACGGGTGT,0.996 ± 0.011
9,GCTTTTAGCG,0.989 ± 0.055
10,GTTTTCCGGG,1.01 ± 0.027
11,TTCCAATTTT,1.03 ± 0.027
12,ATTGGTATGC,1.03 ± 0.011
13,GAGATGGGGG,0.981 ± 0.038
14,TTTATATATA,1.005 ± 0.0095
15,AGTTGGTGAG,0.98 ± 0.034
16,CTATCGGGAC,1.09 ± 0.026
17,GTCTAATCAT,0.967 ± 0.019
18,AATGGGCACA,1 ± 0.042
19,GGGCGGGGAT,1.01 ± 0.018
20,AACGGGCCAC,1.079 ± 0.0077
21,TCTTTGGTGG,1.03 ± 0.038
22,CGGGGCAGAG,0.991 ± 0.043
23,CATCAGGATG,1.01 ± 0.031

row,Sequence,switch fluorescence ratio
1,AAGGCAAAAT,1.04 ± 0.029
2,CGAAGTGGTC,0.995 ± 0.059
3,TTTGCCACTT,0.991 ± 0.011
4,GTAGGGAGCA,1.02 ± 0.022
5,AGGGGGCGTG,1.03 ± 0.031
6,CAGTGATACG,1.16 ± 0.036
7,TTAGAGGGCA,0.99086 ± 0.00097
8,ATGAAAGACG,1.04 ± 0.075
9,GCGTTACGGG,1.002 ± 0.0089
10,GCCTGTTTTG,1 ± 0.046
11,GGGAAGAAGT,1.011 ± 0.0084
12,GGGGGCATTA,0.999 ± 0.016
13,AGGTTCCTGT,0.9944 ± 0.0091
14,CCGGGTTGCA,1.03 ± 0.04
15,ACTATGAACC,1.051 ± 0.0016
16,GTAGGAGGTA,0.9807 ± 0.0039
17,TTCTATCCTA,1.02 ± 0.012
18,CGTAAAAAT,1.01 ± 0.027
19,ATGAAGGGAG,0.991 ± 0.061
20,TGGTAATTTT,0.998 ± 0.017
21,TACGTTCTGA,0.999 ± 0.049
22,AGAACACAGT,1.006 ± 0.0014
23,TAATCAGAGC,1.02 ± 0.039

row,Sequence,switch fluorescence ratio
1,GCGGAGGTTT,0.973 ± 0.034
2,GGTTTAGGAC,0.971 ± 0.016
3,GGATCATTCG,1.02 ± 0.048
4,ATTGGCACGC,1.36 ± 0.42
5,TGAGATCACT,1 ± 0.013
6,TGATTACTAG,0.974 ± 0.017
7,GATGTTCGGC,1.05 ± 0.037
8,GACGATAGTT,0.977 ± 0.026
9,TTTTTTACAG,1.02 ± 0.011
10,ATTTAGACTA,1.01 ± 0.027
11,ATAGGGTGAT,1.03 ± 0.021
12,TTGGCCATCG,0.954 ± 0.039
13,TTTCCTAACT,1.04 ± 0.039
14,GGGCATCTAG,0.9863 ± 0.0013
15,TTTAAGATGG,1.02 ± 0.02
16,CAGGGGGTAA,1.01 ± 0.069
17,AGGTTGTGGT,1.01 ± 0.016
18,ATGGAAGGCG,1.01 ± 0.036
19,CGGTGTGGGA,0.996 ± 0.044
20,GGGGCACGGG,1.02 ± 0.034
21,TCCCGAATTT,1.02 ± 0.016
22,TCCAGGTGAC,4.19 ± 0.38
23,CGGTGAAGAA,0.989 ± 0.013

row,Sequence,switch fluorescence ratio
1,AGAATGGCTT,1 ± 0.041
2,AAGGGTACCT,1.018 ± 0.0077
3,AGGGAAGATA,0.998 ± 0.014
4,ATAGGGACAG,1.012 ± 0.0078
5,AGGGGTAGTG,0.98 ± 0.019
6,GACGTCGGTC,0.9984 ± 0.0089
7,CGGGGGCTAG,0.996 ± 0.012
8,CTTCTTAGTT,0.976 ± 0.019
9,GGGGTTAATG,0.998 ± 0.028
10,CGGTCTTGGG,0.9536 ± 0.0085
11,AAGAGGGGG,0.977 ± 0.026
12,CTGAACGAAT,1.43 ± 0.034
13,CGATGGGGGT,1 ± 0.026
14,ATGGGGAAGC,1.03 ± 0.058
15,TTATGTGGTA,1 ± 0.02
16,ACATTTAGCT,1.01 ± 0.03
17,TTAATTTGGG,1.01 ± 0.024
18,TCATTGTTCG,0.958 ± 0.0035
19,TAGGAATTTT,0.984 ± 0.016
20,AGGTCCCGTT,0.993 ± 0.036
21,CACGCCTTAT,1.034 ± 0.0043
22,TGACCGAGCG,0.9603 ± 0.0065
23,AAAGAGTGTG,0.988 ± 0.037

row,Sequence,switch fluorescence ratio
1,TTGTGAGTGC,0.91 ± 0.023
2,CCCGTAGTTA,1.19 ± 0.042
3,TCGTACTTAT,1.12 ± 0.18
4,AGGTTCAGTC,1.02 ± 0.022
5,ATGGGGGCGA,0.978 ± 0.014
6,TCATGCTTTT,1.03 ± 0.019
7,TATAACGGGA,1.05 ± 0.027
8,GAAGATTGAT,0.96 ± 0.022
9,AGCTGACATT,0.999 ± 0.034
10,GTCAAAGGGT,0.99 ± 0.022
11,GATGTATGGA,0.997 ± 0.027
12,AGGTTATAGT,1.03 ± 0.051
13,TGACTGGCTT,1.014 ± 0.01
14,TTTTACAGGT,1.01 ± 0.028
15,CTATGCGGAA,1.06 ± 0.038
16,TATTGGTAAA,0.997 ± 0.036
17,CTGAGGGGGT,0.991 ± 0.066
18,ACCTTGTGCA,1.02 ± 0.04
19,CGTTTGTGCG,1.01 ± 0.053
20,TATTAAAATT,1.008 ± 0.0077
21,TTCCTGTGAT,1.22 ± 0.27
22,TAGAGGAAGC,1 ± 0.011
23,AAGCTCTGAG,1.03 ± 0.017

row,Sequence,switch fluorescence ratio
1,GTAGGGGGAG,0.9884 ± 0.004
2,ACTTGGAGCG,1.018 ± 0.0092
3,TGGGAAAGGG,1.01 ± 0.036
4,AACCAGCGGA,0.994 ± 0.019
5,GGCGCCATGA,1.034 ± 0.0036
6,CATGCTGGGG,0.9941 ± 0.0022
7,TAAGAAGGAA,0.9918 ± 0.0091
8,GGAATATAAC,1 ± 0.045
9,TATATGTAGA,1.03 ± 0.011
10,ATGTGTCGTC,1.01 ± 0.057
11,GCAAAGGGCG,1.03 ± 0.034
12,ATGGGCGCAG,0.99 ± 0.05
13,AGCTGTTTAG,1 ± 0.014
14,GTTTTATGCG,1.02 ± 0.035
15,AAGGGAGAGG,0.985 ± 0.013
16,TAGGGGATAC,1.06 ± 0.01
17,TAGGGGATTT,1 ± 0.042
18,GAATGTTGTT,0.9476 ± 0.0092
19,TTCGGAGTT,1.04 ± 0.017
